Laboratory results as given in patent publication US20210139548A1 (published 2021).
*1 amine or outer side, *2 acyl side, *3 side chain or, on linkers, in order; H or OH if unused. Side-chain parts run from the residue outwards. The star is where a group is joined. C18 diacid = O=C(O)CCCCCCCCCCCCCCCCC(=O)*; γGlu = O=C(O)[C@H](CCC(=O)[*:2])N[*:1]; Isovaleryl = CC(C)CC(=O)*; AEEA = NCCOCCOCC(=O)O

T1: human neuropeptide Y2 receptor (human, UniProt P49146 1-381)
T1 construct: whole, on cells; also called hNPY2 receptor; hNPY2-R
T1 sequence (looked up): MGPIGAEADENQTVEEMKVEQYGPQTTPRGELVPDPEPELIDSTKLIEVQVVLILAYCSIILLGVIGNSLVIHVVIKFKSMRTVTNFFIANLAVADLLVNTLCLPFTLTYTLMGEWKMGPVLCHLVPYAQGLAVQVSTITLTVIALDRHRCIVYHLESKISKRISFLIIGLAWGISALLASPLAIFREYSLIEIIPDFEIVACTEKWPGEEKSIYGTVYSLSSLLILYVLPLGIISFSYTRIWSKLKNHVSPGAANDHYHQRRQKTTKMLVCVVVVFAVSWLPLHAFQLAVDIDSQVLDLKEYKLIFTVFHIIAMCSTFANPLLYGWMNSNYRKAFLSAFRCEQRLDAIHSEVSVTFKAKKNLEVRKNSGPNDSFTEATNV

B1: Compound 202 (peptide)
peptide: Isovaleryl-APEK([AEEA-AEEA-γGlu-C18 diacid])PEEDAAPEELQKYYVSLRHYYNWLTRQRY-NH2
SMILES: CC(C)CC(=O)N[C@@H](C)C(=O)N1CCC[C@H]1C(=O)N[C@@H](CCC(=O)O)C(=O)N[C@@H](CCCCNC(=O)COCCOCCNC(=O)COCCOCCNC(=O)CC[C@H](NC(=O)CCCCCCCCCCCCCCCCC(=O)O)C(=O)O)C(=O)N1CCC[C@H]1C(=O)N[C@@H](CCC(=O)O)C(=O)N[C@@H](CCC(=O)O)C(=O)N[C@@H](CC(=O)O)C(=O)N[C@@H](C)C(=O)N[C@@H](C)C(=O)N1CCC[C@H]1C(=O)N[C@@H](CCC(=O)O)C(=O)N[C@@H](CCC(=O)O)C(=O)N[C@@H](CC(C)C)C(=O)N[C@@H](CCC(N)=O)C(=O)N[C@@H](CCCCN)C(=O)N[C@@H](Cc1ccc(O)cc1)C(=O)N[C@@H](Cc1ccc(O)cc1)C(=O)N[C@H](C(=O)N[C@@H](CO)C(=O)N[C@@H](CC(C)C)C(=O)N[C@@H](CCCNC(=N)N)C(=O)N[C@@H](Cc1c[nH]cn1)C(=O)N[C@@H](Cc1ccc(O)cc1)C(=O)N[C@@H](Cc1ccc(O)cc1)C(=O)N[C@@H](CC(N)=O)C(=O)N[C@@H](Cc1c[nH]c2ccccc12)C(=O)N[C@@H](CC(C)C)C(=O)N[C@H](C(=O)N[C@@H](CCCNC(=N)N)C(=O)N[C@@H](CCC(N)=O)C(=O)N[C@@H](CCCNC(=N)N)C(=O)N[C@@H](Cc1ccc(O)cc1)C(N)=O)[C@@H](C)O)C(C)C
B2: Compound 204 (peptide)
peptide: Isovaleryl-APEK([AEEA-AEEA-γGlu-C18 diacid])PEEEASPEEVQRYYVSLRHYYNWLTRQRY-NH2
SMILES: CC(C)CC(=O)N[C@@H](C)C(=O)N1CCC[C@H]1C(=O)N[C@@H](CCC(=O)O)C(=O)N[C@@H](CCCCNC(=O)COCCOCCNC(=O)COCCOCCNC(=O)CC[C@H](NC(=O)CCCCCCCCCCCCCCCCC(=O)O)C(=O)O)C(=O)N1CCC[C@H]1C(=O)N[C@@H](CCC(=O)O)C(=O)N[C@@H](CCC(=O)O)C(=O)N[C@@H](CCC(=O)O)C(=O)N[C@@H](C)C(=O)N[C@@H](CO)C(=O)N1CCC[C@H]1C(=O)N[C@@H](CCC(=O)O)C(=O)N[C@@H](CCC(=O)O)C(=O)N[C@H](C(=O)N[C@@H](CCC(N)=O)C(=O)N[C@@H](CCCNC(=N)N)C(=O)N[C@@H](Cc1ccc(O)cc1)C(=O)N[C@@H](Cc1ccc(O)cc1)C(=O)N[C@H](C(=O)N[C@@H](CO)C(=O)N[C@@H](CC(C)C)C(=O)N[C@@H](CCCNC(=N)N)C(=O)N[C@@H](Cc1c[nH]cn1)C(=O)N[C@@H](Cc1ccc(O)cc1)C(=O)N[C@@H](Cc1ccc(O)cc1)C(=O)N[C@@H](CC(N)=O)C(=O)N[C@@H](Cc1c[nH]c2ccccc12)C(=O)N[C@@H](CC(C)C)C(=O)N[C@H](C(=O)N[C@@H](CCCNC(=N)N)C(=O)N[C@@H](CCC(N)=O)C(=O)N[C@@H](CCCNC(=N)N)C(=O)N[C@@H](Cc1ccc(O)cc1)C(N)=O)[C@@H](C)O)C(C)C)C(C)C

Target: T1, human neuropeptide Y2 receptor
Test: radioligand competition (125I-PYY(1-36)), hNPY2R membranes
Procedure, shortened: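 Commercial human Y2 receptor membranes (0.5 μg protein/well) were incubated with peptide for 2 h at room temperature in 50 mM HEPES, 5 mM MgCl₂, 1 mM CaCl₂, pH 7.4, with 0.2% ovalbumin. Bound radioligand was separated on PEI-soaked GF/C filters and counted by scintillation, and IC₅₀ came from nonlinear sigmoidal regression.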

Row | Binder | Ki [nM]
1 | B1 | 0.6
2 | B2 | 3.35
